Measured values reported in patent US20200016201A1, “CHIMERIC ANTIGEN RECEPTORS AND COMPOSITIONS AND METHODS OF USE THEREOF” (published 2020).

Molecular target: Lym-1 antigen (HLA-Dr10) on Raji cells (human)
Test: avidity constant, Scatchard plot analysis on the target tumor cell line (Raji)

Ka: 4.02e+08 M⁻¹
B1: Lym-1 (antibody, V domains shown)
VH: QLKESGPGLVAPSQSLSITCTISGFSLTSYGVHWVRQPPGKGLEWLVVIWSDGSTTYNSALKSRLSISKDNSKSQVFLKMNSLQTDDTAIYYCASHYGSTLAFASWGHGTLVTVSA
VL: DIQMTQSPASLSASVGETVTIICRASVNIYSYLAWYQQKQGKSPQLLVYNAKILAEGVPSRFSGSGSGTQFSLKINSLQPEDFGSYYCQHHYGTFTFGSGTKLEIK
